The record followed here is the DeepSol protein solubility set.

The data set can be described thus: soluble on expression in E. coli; label from the status in PepcDB or PDB records.
As to “MNVLIVDDEPLARERLSRMVNEIEGYRVLEDSASNGEEALALIEKHKPDVVLLDIRMPGIDGLQVAAKLCEREAPPAVVFCTAHDEFALEAFQVSAVGYLVKPVRAEHLIEALKKAERPNRVQLAAMTRPAAESGSGPRTHISARTRKGIELIPLDQVIYFIADHKYVTLRHEGGEVLLDEPLKALEDEFGDRFVRIHRNALVARKRIESMKRTPVGHFELFLRGLNGDALIVSRRHVAGVRKMMQQL”, the “soluble on expression in E. coli” value is recorded as “soluble”. Turning to “MVAMFLAVAVVLGLATSPTAEGGKATTEEQKLIEDVNASFRAAMATTANVPPADKYKTFEAAFTVSSKRNLADAVSKAPQLVPKLDEVYNAAYNAADHAAPEDKYEAFVLHFSEALRIIAGTPEVHAVKPGA”, the “soluble on expression in E. coli” value is “soluble”. With “MEKENTNGGSVYVTVDGHFKPVHVSMKGTGEKGFLEFMLEDVEKALKETEMPVIGMMYYNVPDMGIVPHLWEGNNDDYLQRLEKAMDGHGIKLHRYLRLSEVVYCL”, the “soluble on expression in E. coli” value was “not soluble”.

In the case of “TEPPGVIIVGESEFSFHLGINLRDHGIPVMMFNLFENTSEKAHEAGFEVFKGNLLSSNDRIYSDLLRYNKCILMTQSFIFNSLAFNELVPEFGLNNVDMMPVSFNDEQARNNLNGPIRNHILFDENHTPRWFNQFITQHNIVEVPAEDYEKITEN”, the “soluble on expression in E. coli” value was “not soluble”.

“MSLCRVLSVKPSSYYDWINRDISSQQIHRNQSELLIKAAHSETKERYGFERLHAHLNEQGYDISPYMVRNIKEEHGIKCRRHKRFKVTTDSNHNKLIYDNVLDQQFDVNRPNEAWVSDITYIWTTEGWLYLAGVKDLYTKELVGYAINKRMTADLVCKALNMAIKNKRPSKGLIVHSDRGGQYCSHAYHKIIKQHQFKGSMSGKGNCYDNAPIESFWGVLKNELVYHQDYKTRFAAITDIIRYIELYYNQTRIQKGLGYKSPRQVWFDYYRQAAEGHHHHHH”: the “soluble on expression in E. coli” value is listed as “soluble”. On to “SLSAKDKANVKAIWGKILPKSDEIGEQALSRMLVVYPQTKAYFSHWASVAPGSAPVKKHGITIMNQIDDCVGHMDDLFGFLTKLSELHATKLRVDPTNFKILAHNLIVVIAAYFPAEFTPEIHLSVDKFLQQLALALAEKYR”, for which the “soluble on expression in E. coli” value was “soluble”. Consider “MGSDKIHHHHHHMSARYLDPKKRHEFVFLFDVRDGNPNGDPDAGNLPRVDPETMHGLVTDVALKRKIRDYIALTREGKPRFAIFVQSRVALNRLILEGFQEAGIEPVSLQLAEEQMANESLLEHLDGLAEAGFSREGGTLYYSGQATTEKEIAKLLMGEEEAVAPFKKELEKLAKELAKAVKGRKITEEDRERAQAKLLERFFDIRMFGAVLSTGLNAGQVRGPVQLTFARSLDPIAPLEVSITRVAITREEDRARKETEMGRKPLVPYGLYRAHGFFNPFLAAKTGVQPEDLEALWDALQHLFELDRSAARGEMTVRGLAVFSHEDAKGNAPAHRLFGLIRVERREGVEAPRSFADYRVRAPKEGSLEAHGFPGVHLAWLVRPEGLEDLPPHVG”, for which the “soluble on expression in E. coli” value was “not soluble”. As to “MGSDKIHHHHHHMVKAVVLLSGGLDSATVLAIARQQGYECYALSVSYGQRHGAELAAAKNLARSLGATAHKIIQVDLSTFGGSALIDKEREIPTDGVTPGIPSTYVPARNTIMLSIALAWAEVLGSGDIFIGVNAIDYSGYPDCRPEYIEAFETMANVATKAGIEGTRLAIHAPLMNLSKAEIIKRGGVLGVDYSMTVSCYQADDAGLACGVCDSCRLRRAGFESADVPDVTRYHAGFRQTPAS”, the “soluble on expression in E. coli” value is on record as “not soluble”.

With “MESVRRGKLMKNKKIKFDVYLNGIAYHCIKCGFCCDAPTVTKKDLAKIAGYLKIPFDEVLKRYVRFFNGYIGELKEVGGKCIFLDKKTKKCKIYKVRPLICRLRPYSVQVRNGKLTLTYDIWFLRYCRGLYLGDGKVEDEYFKYAELVLKYLGFEEGVDEEEFKRAKERLLEESLKYRKKKDLEHHHHHH”, the “soluble on expression in E. coli” value is “soluble”.

As to “MKRVVLYIKDKCPHCKDAQRYLDSKGIKYRLCNAKMERGRKELDALGARSVPVLKIGDRLMIGWNHTNFERIYSSKD”, the “soluble on expression in E. coli” value is listed as “not soluble”. Regarding “MGRSNKHDVTSTTPSLAIVQANPHPHKDVVPTEAPIVSSYNDHIRPLLDTVDKLRNLNVMQEGIQLPTIVVVGDQSSGKSSVLESLAGISLPRGQGICTRVPLVMRLQRSRSPEPEIWLEYGDKIVPTDEEHIAQTICAATDVIAGSGKGVSDTPLTLHVKKAGVPDITMVDLPGITRVPVNGQPENIYEQISRMVMKYIEPQESIILNVLSATVDFTTCESIRMSKQVDKTGERTLAVVTKADMAPEGLLQKVTADDVSIGLGYVCVRNRIGEETYEEARMQEELLFRTHPMLSMINDEIVGIPVLAQKLTQIQGMMISRCLPEIERKINVKMEISVLEFNKLPIVMASTGEALMSLMDIIGSAKESLLRILVHGDFSEYPNDQKMHCTARLAEMLNRFSDNLQAQPQAVTEEFLMDEIKVLEERKCIGLPNFIPRSSFLAILSQHVDGIQDKPVEFIKEIWDYIEVVLSSVITTYSDNFPQIQSSIKRAGRNLMSRTKERSKTTSQQNFINSVLHDENKPENFALPGFGDVKISHLRKYHAHLLQQAFDMKMRITSYWTIVLRRVVDNLALYLQFSVKNLVNSQFQKEIVAEMVDPRAGGGIDRMLEESPSVASKREKLKNSLKLLKESKDVVAAIVDQNSVYADR”, the “soluble on expression in E. coli” value was “soluble”.

“MGHHHHHHSHMARLILERFLQEHEETPPSKSIINSMLRDPSQIPDGVLANQVYQCIVNDCCYGPLVDCIKHAIGHEHEVLLRDLLLEKNLSFLDEDQLRAKGYDKTPDFILQVPVAVEGHIIHWIESKASFGDECSHHAYLHDQFWSYWNRFGPGLVIYWYGFIQELDCNRERGILLKACFPTNIVTLCHSIA”: the “soluble on expression in E. coli” value is “not soluble”. For the sequence “MGSDKIHHHHHHMEEIKEQNNRLFLLLSIMIMEFSNAKTESDILQGLLNLVRKVVDIKEVVLVDENKRKIWGRDIDIKRFEEFIDWSIRQSNPVFVEDELGYVGIVPVVKQDRMFGSLIVLLNHQPSMEETEIFKVLSFLSAVVLENIKLYRELEETYNYVNVILNGLPEGIFVYSNGEIKFQNEKFKEENFPDEVLRKAISLSEEAISLRTQRVGEVISGEEFFSITSIPLILGSEVQALTIVENVTESKELERLKRIDRMKTEFIANISHELRTPLTAIKAYAETIYNSLGELDLSTLKEFLEVIIDQSNHLENLLNELLDFSRLERKSLQINREKVDLCDLVESAVNAIKEFASSHNVNVLFESNVPCPVEAYIDPTRIRQVLLNLLNNGVKYSKKDAPDKYVKVILDEKDGGVLIIVEDNGIGIPDHAKDRIFEQFYRVDSSLTYEVPGTGLGLAITKEIVELHGGRIWVESEVGKGSRFFVWIPKDRAGEDNRQDN”, the “soluble on expression in E. coli” value is “not soluble”. For “MEFPFDVDALFPERITVLDQHLRPPARRPGTTTPARVDLQQQIMTIIDELGKASAKAQNLSAPITSASRMQSNRHVVYILKDSSARPAGKGAIIGFIKVGYKKLFVLDDREAHNEVEPLCILDFYIHESVQRHGHGRELFQYMLQKERVEPHQLAIDRPSQKLLKFLNKHYNLETTVPQVNNFVIFEGFFAHQHPPARKLPPKRAEGDIKPYSSSDREFLKVAVEPPWPLNRAPRRATPPAHPPPRSSSLGNSPERGPLRPFVPEQELLRSLRLCPPHPTARLLLAADPGGSPAQRRRTR”, the “soluble on expression in E. coli” value is recorded as “not soluble”. In the case of “MAHHHHHHMVKVKTISRSHLEWTKDRNGEVPRVNRNFDTKYNPMAKQTEFTRAIRAAKLDRMFAKPFVGALSGHHDTIQSVAVDYTSLSTVVSGAFDGGIIVWDVFTKRPKAIVDAHRHSVDGLVLSTDGVACFSASRDKVVKMWDLDFPSDDSKVEPLAEYLGEFPFSSIDHHFHKSIFVTSSDAVHLWDVNRTQPLQRFSWGDDTVSCCQFNKVETELVACCMSDRGVFIYDTRTKASHSKIIMEMCCTSVAWNPMDPNTFVTGSDDRNCYLFDMRVPGRPKSVFQGHINGITSVDFCPTGKKFVAGSLDATLRMWDIHQTTKSNSIEMYHTKRMAKVFSVKWSPDSSYIYSGSEDAILRVWKADASKPVRPLRGPERSSFNYMRSLKDRYSGFVEVRRIANQRNTPKAISRAQLRGKKAEKREFVKEASRRKHDDIKPLAQRKVYQSLN”, the “soluble on expression in E. coli” value is recorded as “not soluble”.

In the case of “MSLKLIGMLDSPYVRRVAISLKSLGLPFEHHSLSVFSTFEQFKAINPVVKAPTLVCEGGEVLMDSSLIIDYLETLAGPQRSLMPTALPQRLRELRLVGLALAACEKSVQIVYERNLRPAEKQHGPWLERVGGQLQAAYGELEQELQKQPLPRDGSLGQAGISLAVAWSFSQMMVADQFNPGQFPAVRGFAEYAEQLPVFLATPATEGHHHHHH”, the “soluble on expression in E. coli” value is given as “soluble”. The result for “MERIAMNPLMQQAIQFANDHETAWDRSVRGNFGVHLDDPPPWNRLLGPVHDRGPVSGVVVVDGQTLASWGEPERADLTFSVAKLYLSILAGVAHDRGLLPDVDEPVGRRVPGIGFDAGRNARITWRHLLQQTSEWEGERFGVPDQADRYRAVAFGIPPDGRKGDARPLQEPGTYWEYNDVRINQLSYALLHLFRRPLPEVFREAVTRPLGASEDWQWVGYDNAWVDIDGVRMPSVPGGTHWGGGMSISARDQALIGRMLLDEGRAADGRQVLSPAWIQAMRTPCDIAPYYGYLIWLNHERKVFPSVPASSFFGIGAGSSFTWVEPERRMVVIVRWLDAAYADALFGRILAAVDAHRAGLEHHHHHH” reads “not soluble”; that for “MAWVVNKQSTQEELANRFRALVEANEILQIPGAHDAMAALVARNTGFLALYLSGAAYTASKGLPDLGIVTSTEVAERARDLVRATDLPVLVDIDTGFGGVLNVARTAVEMVEAKVAAVQIEDQQLPKKCGHLNGKKLVTTEELVQKIKAIKEVAPSLYIVARTDARGVEGLDEAIERANAYVKAGADAIFPEALQSEEEFRLFNSKVNAPLLANMTEFGKTPYYSAEEFANMGFQMVIYPVTSLRVAAKAYENVFTLIKETGSQKDALSNMQTRSELYETISYHDFEELDTGIAKTVLSEDQ”, “not soluble”. Next, “MNRMSLAALLSCLPLVAWADNPVKLDTPVSGWRAGDGSAANYRQVVNYPASSVNVAADQATTARIRGAIESQPKDRPATLVVNGVSMPLKVDADGSFDRPFAFPSGSNSVEVRNAAGQSRRVQFYHGGGGGEVPAKLRVLLSWDSDNTDLDLHLVTPDGDHVWYGNRSLANGATLDVDVTTGYGPEIIATPTPQKGPYLVYVNYFGGGYGSSEDGAEQAAQDLTTARITLVTEEGTPNEKQETFLVPMRKPGELTLVKRFSYP”: “not soluble”; “MGSDKIHHHHHHMSTEHQLLVGLLKKLKDDALVLPTLPEVAMRVQEVVSRQDSSLKQVADIIGQDAAISARIIKVANSALYSRGNKAESINAAVSRIGLVQIKSITTSVAMEQLFISTNEMVWEVMDEVWKTSIEVTASSCAMLEMYNKRHPTKKLDRDTLTLAGLVHNIGALPVLTEAEVHPELFGRIDDLRSLVRKMQGPIGRAVLKTWDFAPEVMEVVERWADLHYLPEKVTYLDFIRSAAFYTGELRAGEELEERLGVFAQRGLPVTPEDLASDEFINMYHSIMQSYE”: “not soluble”; “MARPIATHDNTFTKAYLQQHCGDLLSFDGQGDLSGWLDDVLTGAGRLNESMASNTKPVSPYLILTQLLTHDTLTVSAVQESLSRKRVALGEPMVSTRYARYVYATVVSASKSVQYHASKAGS”: “not soluble”. Next, “MFKHDCQFEDLRIIAQRVNPLDPTWNEWTLVACQKCKMLKEWQHHSEEQMHGGDLHITALPTHDYLHHIYGIVESDVDLILTHQKKARRYNRYTNAVEEHDV”: “not soluble”.
